Experimental data from patent US20260125468A1 (NONA BIOSCIENCES SUZHOU, published 2026).
Values belong to the binder of their own block, whether it stands above or below them.

What was measured:
[1] = biological target: T1, CD3 on T cells in cynomolgus monkey PBMCs (cynomolgus monkey, UniProt Q95LI5 22-198; Q95LI8 22-171; Q95LI7 23-181); test: FACS on cynomolgus monkey PBMCs, 2-fold serial dilution from 200 nM [B]
T1 construct: whole, on cells
Experimental: (§1) The cross reactivity to cynomolgus monkey for 3G11-HCAb (PR010991) and derived B7H4xCD3 PR008551 was evaluated by assays of binding activity to cynomolgus monkey PBMCs by FACS method and T cell mediated cytotoxicity with cynomolgus monkey PBMCs by RTCA method. In this example, Anti-CD3/TCR HCAb PR006361 derived from patent WO2016180982A1 and its derived B7H4xCD3 PR006001 were used as control antibodies. These antibodies are generated as described in Example 8.
(§2) Cynomolgus monkey PBMCs were isolated from 10 mL fresh cynomolgus monkey blood using Ficoll Paque Plus (Cytiva 17-1440-02) following the vendor's instructions. The recombinant antibodies were diluted from 200 nM to 11 different concentrations by 2-fold serial dilution. The diluted samples were incubated with cynomolgus monkey PBMCs for 1 hour, and then the secondary antibody (Alexa Fluor®488 AffinityPure Goat Anti-Human IgG (Fcγ Fragment Specific), Jackson ImmunoResearch, 109-545-098) was added and incubated for 1 hour. The cells were washed twice with staining buffer and subjected to flow cytometry. The data were processed by FlowJo v10 (FlowJo, LLC) and non-linear curve fitting analyzed by GraphPad Prism 8.

[2] = biological target: T2, hCD3e-his, Human CD3 epsilon Protein with His Tag (Acro Biosystems, CDE-H5223) (Human, UniProt P07766 23-126); test: ELISA, plate coated with human CD3e-his at 1 µg/mL, anti-human IgG Fc-HRP [E]
T2 construct: Bought protein; also called human CD3E monomeric protein; monomeric CD3E; not shown: His Tag
Experimental: (§3) ELISA assays were conducted as briefly described: CD3 proteins were coated onto ELISA plates at 1 μg/mL; testing antibodies OKT3 and PR006364 (A1-HCAb) were diluted from 2 μg/mL to 8 different concentrations by 3-fold serial dilution, or testing antibodies PR006370 (SP34) and PR010991 (3G11-HCAb) were diluted from 100 nM to 11 different concentrations by 2-fold serial dilution; secondary antibody (anti-human IgG Fc-HRP) was used to detect PR006364, PR006370 and PR010991, and secondary antibody (anti-mouse IgG Fc-HRP) was used to detect OKT3 binding signal. The absorption signal at 450 nm (OD450) was recorded by plate reader (Molecular Devices, SpectraMax), and the data were processed and non-linear curve fitting analyzed by GraphPad Prism 8.

[3] = biological target: T3, hCD3d-his, Human CD3 delta Protein with His Tag (Acro Biosystems, CDD-H5224) (Human, UniProt P04234 22-105); test: ELISA, plate coated with human CD3d-his at 1 µg/mL, anti-human IgG Fc-HRP [F]
T3 construct: Bought protein; also called monomeric CD3D; not shown: His Tag
Experimental: as §3

[4] = biological target: T4, Biotinylated human CD3e&d protein (Acro Biosystems, CDD-H82W6) (human, UniProt P07766 23-126; P04234 22-105, biotinylated protein; chain and site not stated); test: BLI (Octet RED96e), biotinylated antigen on SA biosensors, antibody 1.5-24 nM
T4 construct: Bought protein loaded on SA Octet biosensors; also called human CD3 protein
Experimental: (§4) To determine the binding affinities of anti-CD3 antibodies to human or cynomolgus monkey CD3e&d heterodimer proteins, bio-layer interferometry (BLI) assays were carried out by using Octet® RED96e.
(§5) Biotinylated human CD3e&d protein (Acro Biosystems, CDD-H82W6) or biotinylated cynomolgus CD3e&d protein (Acro Biosystems, CDD-C82W6) was first loaded onto the surface of SA Octet biosensors (Sartorius, 18-5019) to reach capture levels between 0.5-0.8 nm. The loaded biosensors were then dipped in wells containing 2-fold serial dilutions of testing antibodies to detect association signals, followed by dissociation steps in wells containing kinetic buffer. The association phase was 180 seconds, and the dissociation phase was 900 seconds. The sensorgrams were recorded, and the reference signals were subtracted before curve fitting using ForteBio Data Analysis 11.0 software. Association rates (kon) and dissociation rates (koff) were calculated using a simple one-to-one Langmuir binding model. The equilibrium dissociation constant (KD) was calculated as the ratio of koff/kon.

[5] = biological target: T5, Biotinylated cynomolgus CD3e&d protein (Acro Biosystems, CDD-C82W6) (cynomolgus, UniProt Q95LI5 22-117; Q95LI8 22-105, biotinylated protein; chain and site not stated); test: as above
T5 construct: Bought protein loaded on SA Octet biosensors
Experimental: as §4, §5

[6] = biological target: T6, hCD3e&g-his, Human CD3 epsilon & CD3 gamma Heterodimer Protein with His Tag (Acro Biosystems, CDG-H52W5) (Human, UniProt P07766 23-126; P09693 23-116); test: ELISA, plate coated with human CD3e&g-his at 1 µg/mL, anti-human IgG Fc-HRP [D]
T6 construct: Bought protein; also called human CD3E&G heterodimer protein; not shown: His Tag fused to C-terminus of CD3 epsilon chain
Experimental: as §3

[7] = biological target: T7, cynoCD3e&d-his, Cynomolgus CD3 epsilon & CD3 delta Heterodimer Protein (Acro Biosystems, CDD-C52W4) (Cynomolgus, UniProt Q95LI5 22-117; Q95LI8 22-105); test: ELISA, plate coated with cyno CD3e&d-his at 1 µg/mL, anti-human IgG Fc-HRP [C]
T7 construct: Bought protein; also called cynomolgus CD3E&D heterodimer protein; not shown: His Tag fused to C-terminus of CD3 epsilon chain; Flag Tag fused to C-terminus of CD3 delta chain
Experimental: as §3

[8] = biological target: T8, hCD3e&d-his, Human CD3 epsilon & CD3 delta Heterodimer Protein with His Tag (Acro Biosystems, CDD-H52W1) (Human, UniProt P07766 23-126; P04234 22-105); test: ELISA, plate coated with human CD3e&d-his at 1 µg/mL, anti-human IgG Fc-HRP [B]
T8 construct: Bought protein; also called human CD3E&D heterodimer protein; not shown: His Tag fused to C-terminus of CD3 epsilon chain
Experimental: as §3

[9] = biological target: T5, Biotinylated cynomolgus CD3e&d protein …; test: BLI (Octet RED96e), biotinylated antigen on SA biosensors
Experimental: as §4, §5

[10] = biological target: T1, CD3 on T cells in cynomolgus monkey …; test: FACS on cynomolgus monkey PBMCs, 2-fold serial dilution from 200 nM [A]
Experimental: as §1, §2

T5 sequence (Q95LI5 22-117, chain 1 of 2): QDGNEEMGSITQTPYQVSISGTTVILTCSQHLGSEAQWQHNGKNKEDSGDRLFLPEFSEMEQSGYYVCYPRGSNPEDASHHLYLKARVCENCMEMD
T5 sequence (Q95LI8 22-105, chain 2 of 2): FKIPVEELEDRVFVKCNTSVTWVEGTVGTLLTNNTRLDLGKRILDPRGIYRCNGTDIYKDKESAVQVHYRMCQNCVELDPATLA
T1 sequence (Q95LI5 22-198, chain 1 of 3): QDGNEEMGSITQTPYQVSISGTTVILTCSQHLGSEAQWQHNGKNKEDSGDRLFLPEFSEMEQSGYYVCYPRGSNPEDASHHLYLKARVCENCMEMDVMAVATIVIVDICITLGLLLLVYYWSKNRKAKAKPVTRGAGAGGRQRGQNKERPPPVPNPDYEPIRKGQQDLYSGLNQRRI
T1 sequence (Q95LI8 22-171, chain 2 of 3): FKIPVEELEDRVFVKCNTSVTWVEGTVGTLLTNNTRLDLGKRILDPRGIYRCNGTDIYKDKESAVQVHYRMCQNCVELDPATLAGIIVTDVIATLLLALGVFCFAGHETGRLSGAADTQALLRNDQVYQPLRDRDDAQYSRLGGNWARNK
T1 sequence (Q95LI7 23-181, chain 3 of 3): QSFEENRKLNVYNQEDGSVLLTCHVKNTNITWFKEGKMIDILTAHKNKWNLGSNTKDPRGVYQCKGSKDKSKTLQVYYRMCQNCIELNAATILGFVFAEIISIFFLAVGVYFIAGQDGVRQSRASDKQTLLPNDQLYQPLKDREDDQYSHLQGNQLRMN
T6 sequence (P09693 23-116, one chain of several): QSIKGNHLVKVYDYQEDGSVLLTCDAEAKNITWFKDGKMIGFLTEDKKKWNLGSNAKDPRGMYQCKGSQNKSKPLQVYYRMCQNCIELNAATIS
T7 sequence (Q95LI5 22-117, stated change not applied, chain 1 of 2): as the sequence (Q95LI5 22-117, chain 1 of 2) above
T7 sequence (Q95LI8 22-105, stated change not applied, chain 2 of 2): as the sequence (Q95LI8 22-105, chain 2 of 2) above

binding result [1]: no binding (tested: 200 nM)
B1: PR006001, anti-B7H4xCD3 VH(PR006361)-Fc-scFv(PR003366), hIgG1(dCH1, KiH, LALA) (bispecific antibody)
chain 1: not shown
chain 2: EIVMTQSPASLSVSPGERATLSCRASQSVSSNLAWYQQKPGQAPRLLIYGASTRATGIPARVSGGGSGTEFTLTISSLQSEDFAVYYCQQYKNWPFTFGPGTKLEIKGGGGSGGGGSGGGGSGGGGSQVQLVQSGAEVKKPGSSMRVSCKASEDTFSSYAISWVRQAPGQGLEWMGGTAPIFGTTNYAQKFQGRVTITADKSTSTAYMELSSLRSEDTAVYYCARGGPYFDYWGQGTLVTVSSASEPKSSDKTHTCPPCPAPEAAGGPSVFLFPPKPKDTLMISRTPEVTCVVVDVSHEDPEVKFNWYVDGVEVHNAKTKPREEQYNSTYRVVSVLTVLHQDWLNGKEYKCKVSNKALPAPIEKTISKAKGQPREPQVCTLPPSREEMTKNQVSLSCAVKGFYPSDIAVEWESNGQPENNYKTTPPVLDSDGSFFLVSKLTVDKSRWQQGNVFSCSVMHEALHNHYTQKSLSLSPGK
notes: Control bispecific; anti-CD3 VH-Fc chain and anti-B7H4 scFv-Fc chain

binding result [2]: no binding (tested: 100 nM)
binding result [3]: no binding (tested: 100 nM)
Kd [4]: < 0.001 nM
koff [4]: < 1e-07 s⁻¹
kon [4]: 906000 M⁻¹ s⁻¹
Kd [5]: < 0.001 nM
koff [5]: < 1e-07 s⁻¹
kon [5]: 708000 M⁻¹ s⁻¹
binding result [6]: no binding (tested: 100 nM)
EC50 (read off the curve) [7]: ~2 nM
EC50 (read off the curve) [8]: ~0.9 nM
B2: PR010991, anti-CD3 3G11-HCAb hIgG1(C220S, AAA) (antibody, V domains shown)
VH: RVHLAESGGGLVQAGGSLRLSCAASGSRLNDNAMAWFRQAPGKEREFVGSIFWTGGNTYYADAVKGRLTISRDNAKNALYLQMNSLKPEDTAVYYCAASRVVWYYCSGYGCSRAGDYVYWGQGTQVTVSS
notes: Heavy-chain-only antibody, human IgG1 Fc (C220S, L234A, L235A, G237A)

binding result [9]: no binding (tested: 12.5-200 nM)
binding result [10]: no binding (tested: 200 nM)
B3: PR006361, anti-CD3/TCR HCAb hIgG1(AAG) from WO2016180982A1 (antibody, V domains shown)
VH: EVQLVESGGGPVQAGGSLRLSCAASGRTYRGYSMGWFRQAPGKEREFVAAIVWSGGNTYYEDSVKGRFTISRDNAKNTMYLQMTSLKPEDSATYYCAAKIRPYIFKIAGQYDYWGQGTQVTVSS
notes: Control heavy-chain-only antibody from prior art; C220S and AAG mutations
